According to patent US20090010941A1, “Methods for treating HIV” (priority 2007, published 2009):
Entries after “also recorded” stand apart in the source; their conditions may differ. Counter-ions that a name gives are not always drawn.

Key:
[1] = in vivo; cited from earlier work
[2] = test system: TRAIL-R1 expression on HIV-1 infected macrophages; format: cell-based, human
[3] = test system: Bcl-2, Mcl-1, BclXL, BimL, Bmf and cFLIP; test: Western blotting of pro- and anti-apoptotic proteins in the TRAIL signaling pathway; format: cell-based, human; conditions: HIV-1 LAI WT infected macrophages, 2 μM Imatinib 16 hours
Experimental: FIG. 11 provides a set of six protein immunoblot images. […] Protein levels of Bcl-2, Mcl-1, BClxL, BimL, Bmf and cFLIP were determined by Western blotting.
It has been shown that envelope induces over-expression of anti-apoptotic genes, Mcl-1, Bfl-1, cIAP-1, cIAP-2 and XIAP, that function in preventing mitochondrial and caspase-mediated apoptosis by TRAIL (Salvesen and Duckett, 2002; Zhang & Fang, 2005; Han et al., 2006).

[4] = test system: HIV-1 infected macrophages; test: Cell Death ELISA for histone-associated DNA fragmentation after Imatinib alone; format: cell-based, human; conditions: Imatinib alone 24 or 120 hours, no exogenous TRAIL, five days after infection
Experimental: ELISA for Caspase-3 cleavage (to active form) was obtained from Cell Signaling Technologies (Beverley Mass.). Briefly, 1.4×10^6 macrophages infected with WT and envelope-minus viruses were lysed according to the supplier's protocol, 1 hour after the addition of soluble recombinant Trail (100 ng ml-1). Protein content was determined by Bradford Assay (Bio-Rad, Hercules Calif.) and 220 μg of protein in 200 μl from each culture was assayed. ELISA for supernatant release of histone associated DNA fragments released after induced cell death (Roche, Nutley N.J.) was used to measure macrophage longevity. […] In some experiments an MTT assay (Sigma, St. Louis Mo.) was used to measure cell viability. Fluorescent detection of active caspases was performed by pre-treating cells with red-VAD-FMK and flow cytometry according to the manufacturer's protocol (EMD biosciences). For the measurement of apoptosis by Annexin V and propidium iodide staining in flow cytometry reagents were obtained from BioVision (Mountain View Calif.) and used according to the supplier's protocol.

[5] = test system: HIV-1 infected macrophages; test: Apoptosis by Annexin V and propidium iodide staining and flow cytometry; format: cell-based, human; conditions: TRAIL exposure without Imatinib treatment
[6] = test system: HIV-1 infected macrophages; test: TRAIL-mediated apoptosis by ELISA for active (cleaved) Caspase 3; format: cell-based, human; conditions: HIV-1 WT infected macrophages, Day 2
Experimental: (§1) Macrophages were infected with pseudotyped wild-type or envelope-minus HIV-1 LAI variants and monitored for virus production (FIG. 4A). At 8 days post infection, cultures were incubated with soluble TRAIL (100 ng·ml-1) and apoptosis determined by ELISA for active (cleaved) Caspase 3. […] Macrophage cultures, equally infected with pseudotyped HIV-1 LAI WT or Δenv viruses or mock infected, were examined by phase contrast microscopy after incubation with 100 ng/ml TRAIL (1 hour treatment with TRAIL followed by 5 hours incubation after removal of TRAIL). […] Eight days after infection with pseudotyped HIV-1 LAI WT or Δenv viruses, macrophages were incubated with soluble TRAIL (100 ng·ml-1) and percentage of viable cells remaining extrapolated from the level of cell death determined from ELISA. Macrophage half-life was calculated from the linear regression slope and expressed in hours+/−SD.
Relationship of apoptosis by TRAIL, M-CSF release and TRAIL-R1 expression in macrophages infected with pseudotyped wild type or envelope minus HIV-1 HSA viruses. In FIG. 6A, M-CSF release as a function of time was determined by ELISA. In FIG. 6B, TRAIL-R1 expression as a function of time was measured by flow cytometry. In FIG. 6C, TRAIL-mediated apoptosis in macrophages was analyzed by ELISA for active (cleaved) Caspase 3 in parallel cultures during the infection (Error bars, SD). […]

[7] = test system: HIV-1 infected macrophages; test: Macrophage half-life in the presence of TRAIL (cell death ELISA); format: cell-based, human; conditions: soluble TRAIL 100 ng·ml-1
Experimental: as §1
Macrophages are a long-lived reservoir of HIV in vivo and a source of viral rebound (reviewed in Stevenson, 2003). The evasion of apoptosis in other human viral infections contributes to viral persistence and enables the infected cell to survive in the face of a hostile microenvironment (Raftery et al., 2001; Secchiero et al., 2001; Tollefson et al. 1998; Tollefson et al. 2001). Therefore we determined the half-life of HIV-1 infected macrophages in the presence of a concentration of TRAIL capable of inducing apoptosis. […] Thus resistance to TRAIL can potentially provide a significant advantage to macrophages infected by HIV-1.
ELISA for Caspase-3 cleavage (to active form) was obtained from Cell Signaling Technologies (Beverley Mass.). Briefly, 1.4×10^6 macrophages infected with WT and envelope-minus viruses were lysed according to the supplier's protocol, 1 hour after the addition of soluble recombinant Trail (100 ng ml-1). Protein content was determined by Bradford Assay (Bio-Rad, Hercules Calif.) and 220 μg of protein in 200 μl from each culture was assayed. […]

[8] = test system: HIV-1 LAI infected macrophages; test: Macrophage viability with increasing concentrations of TRAIL (MTT assay); format: cell-based, human; conditions: 16 hours
Experimental: FIG. 5. provides three graphs showing that cell viability and virus production in the presence of TRAIL requires an intact envelope gene and is augmented by M-CSF. Macrophage viability and virus production in the presence of increasing concentrations of TRAIL is shown in FIG. 5A and FIG. 5B, respectively. Four days after infection with pseudotyped HIV-1 LAI WT or Δenv viruses, macrophages were incubated with increasing concentrations of soluble TRAIL and cell viability (FIG. 5A) and virus production (FIG. 5B) determined after 16 hours by MTT assay and reverse transcriptase production, respectively. Activated CD8+ T cells suppress viral replication in macrophages via TRAIL (FIG. 5C). Macrophages were infected with pseudotyped wild-type or envelope-minus HIV-1 LAI variants and monitored for virus production in a 24 hour period after incubation with Anti-CD3/CD28 stimulated autologous CD8+ TRAIL+T lymphocytes for 4 hours. Macrophages were pre-treated for 16 hours with M-CSF neutralizing antibody or isotype control and T cells were preincubated with recombinant TRAIL-R1 or control receptor (5 μg·ml-1) for 1 hour. […]
ELISA for Caspase-3 cleavage (to active form) was obtained from Cell Signaling Technologies (Beverley Mass.). […] Protein content was determined by Bradford Assay (Bio-Rad, Hercules Calif.) and 220 μg of protein in 200 μl from each culture was assayed. […]

HIV-1 LAI = test: Virus production with increasing concentrations of TRAIL (reverse transcriptase); format: cell-based, human; conditions: 16 hours
Experimental: FIG. 5. provides three graphs showing that cell viability and virus production in the presence of TRAIL requires an intact envelope gene and is augmented by M-CSF. Macrophage viability and virus production in the presence of increasing concentrations of TRAIL is shown in FIG. 5A and FIG. 5B, respectively. Four days after infection with pseudotyped HIV-1 LAI WT or Δenv viruses, macrophages were incubated with increasing concentrations of soluble TRAIL and cell viability (FIG. 5A) and virus production (FIG. 5B) determined after 16 hours by MTT assay and reverse transcriptase production, respectively. Activated CD8+ T cells suppress viral replication in macrophages via TRAIL (FIG. 5C). Macrophages were infected with pseudotyped wild-type or envelope-minus HIV-1 LAI variants and monitored for virus production in a 24 hour period after incubation with Anti-CD3/CD28 stimulated autologous CD8+ TRAIL+T lymphocytes for 4 hours. Macrophages were pre-treated for 16 hours with M-CSF neutralizing antibody or isotype control and T cells were preincubated with recombinant TRAIL-R1 or control receptor (5 μg·ml-1) for 1 hour.
The differential sensitivity of wild type and envelope minus HIV-1 infected macrophages to TRAIL-mediated cell killing correlated with the concentration of TRAIL required to impact cell viability and virus production. […]

[9] = macrophages infected with pseudotyped HIV-1 LAI Δenv
[10] = macrophages infected with pseudotyped wild type HIV-1 LAI

Molecule: Cc1ccc(NC(=O)c2ccc(CN3CCN(C)CC3)cc2)cc1Nc1nccc(-c2cccnc2)n1 [Imatinib, Imatinib mesylate]
- bioavailability to the brain [1]: poor bioavailability to the brain
- TRAIL-R1 expression on uninfected macrophages ([2]; uninfected macrophages, also those in cultures of infected cells, Imatinib 16 hours): did not promote TRAIL-R1 expression
- expression of pro- and anti-apoptotic proteins [3]: cause a shift in the expression of the proteins in favor of cellular apoptosis
- apoptosis (histone-associated DNA fragmentation) of wild-type-infected macrophages [4]: results in apoptosis of wild-type-infected macrophages; also recorded: removed the requirement for exogenous TRAIL

B1: TRAIL: soluble human recombinant TRAIL (TNF-related apoptosis-inducing ligand) obtained from Axxora LLC (protein, UniProt P50591 39-281, looked up)
extracellular domain: TNELKQMQDKYSKSGIACFLKEDDSYWDPNDEESMNSPCWQVKWQLRQLVRKMILRTSEETISTVQEKQQNISPLVRERGPQRVAAHITGTRGRSNTLSSPNSKNEKALGRKINSWESSRSGHSFLSNLHLRNGELVIHEKGFYYIYSQTYFRFQEEIKENTKNDKQMVQYIYKYTSYPDPILLMKSARNSCWSKDAEYGLYSIYQGGIFELKENDRIFVSVTNEHLIDMDHEASFFGAFLVG
modifications: extracellular domain
notes: soluble human recombinant TRAIL (TNF-related apoptosis-inducing ligand) obtained from Axxora LLC
- apoptosis of infected macrophages [5]: 3.9%
- TRAIL-induced active caspase 3 elevation [6]: 3 fold
- macrophage half-life in the presence of TRAIL ([7]; HIV-1 Δenv infected macrophages): around 36 hours
- macrophage half-life in the presence of TRAIL ([7]; mock infected cultures): 81 h
- macrophage half-life in the presence of TRAIL ([7]; wild type infected cultures): 110 h
- TRAIL concentration effecting ~50% reduction in cell viability [8, 9]: 3 ng/mL
- TRAIL concentration required for ~50% reduction in viability [8, 10]: > 30 ng/mL
- TRAIL concentration effecting ~50% reduction in virus output (HIV-1 LAI; [9]): 3 ng/mL
- TRAIL concentration required for ~50% reduction in virus output (HIV-1 LAI; [10]): > 50 ng/mL

B2: exogenous M-CSF: recombinant macrophage colony stimulating factor added to macrophage cultures (protein, UniProt P09603 33-554, looked up)
Macrophage colony-stimulating …: EEVSEYCSHMIGSGHLQSLQRLIDSQMETSCQITFEFVDQEQLKDPVCYLKKAFLLVQDIMEDTMRFRDNTPNAIAIVQLQELSLRLKSCFTKDYEEHDKACVRTFYETPLQLLEKVKNVFNETKNLLDKDWNIFSKNCNNSFAECSSQDVVTKPDCNCLYPKAIPSSDPASVSPHQPLAPSMAPVAGLTWEDSEGTEGSSLLPGEQPLHTVDPGSAKQRPPRSTCQSFEPPETPVVKDSTIGGSPQPRPSVGAFNPGMEDILDSAMGTNWVPEEASGEASEIPVPQGTELSPSRPGGGSMQTEPARPSNFLSASSPLPASAKGQQPADVTGTALPRVGPVRPTGQDWNHTPQKTDHPSALLRDPPEPGSPRISSLRPQGLSNPSTLSAQPQLSRSHSSGSVLPLGELEGRRSTRDRRSPAEPEGGPASEGAARPLPRFNSVPLTDTGHERQSEGSFSPQLQESVFHLLVPSVILVLLAVGGLLFYRWRRRSHQEPQRADSPLEQPEGSPLTQDDRQVELPV
- TRAIL-R1 expression ([2]; macrophages infected with an envelope defective virus, exogenous M-CSF 16 hours): down-regulated TRAIL-R1
